Tests used:
[1] = target: ZNRF1^CTD (C-terminal domain of ZNRF1, residues 139–227) (UniProt Q8ND25); assay: ITC; ZNRF1 construct (10–30 µM) in the cell, E2 in the syringe; 25°C; 20 mM sodium phosphate pH 8.0, 150 mM NaCl; single site model
[2] = target: Ube2T (Homo sapiens) (UniProt Q9NPD8); details: cited from earlier work
Chain of Ube2T (Homo sapiens) (Q9NPD8 whole entry): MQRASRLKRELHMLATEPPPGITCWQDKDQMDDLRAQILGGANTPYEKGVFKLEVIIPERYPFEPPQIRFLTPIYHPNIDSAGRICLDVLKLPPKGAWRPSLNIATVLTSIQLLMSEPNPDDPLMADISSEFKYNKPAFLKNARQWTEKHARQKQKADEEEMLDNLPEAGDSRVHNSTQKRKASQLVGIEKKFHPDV

Chain of ZNRF1^CTD (C-terminal domain of ZNRF1, residues 139–227) (Q8ND25 139-227): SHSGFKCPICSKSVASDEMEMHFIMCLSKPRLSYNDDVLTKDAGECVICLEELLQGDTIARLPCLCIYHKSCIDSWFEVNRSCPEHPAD
Chain of Ube2W (Q96B02 whole entry): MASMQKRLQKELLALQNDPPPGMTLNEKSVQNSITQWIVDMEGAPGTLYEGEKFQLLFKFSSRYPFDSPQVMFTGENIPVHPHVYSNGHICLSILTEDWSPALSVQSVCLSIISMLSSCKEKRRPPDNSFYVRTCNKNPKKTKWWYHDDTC
Chain of Ube2D2 (P62837 whole entry): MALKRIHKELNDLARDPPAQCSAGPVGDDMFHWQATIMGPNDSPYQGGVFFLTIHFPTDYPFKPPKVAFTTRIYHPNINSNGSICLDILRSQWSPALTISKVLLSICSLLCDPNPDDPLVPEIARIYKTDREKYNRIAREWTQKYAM
Chain of FANCL (Q9NW38 2-375): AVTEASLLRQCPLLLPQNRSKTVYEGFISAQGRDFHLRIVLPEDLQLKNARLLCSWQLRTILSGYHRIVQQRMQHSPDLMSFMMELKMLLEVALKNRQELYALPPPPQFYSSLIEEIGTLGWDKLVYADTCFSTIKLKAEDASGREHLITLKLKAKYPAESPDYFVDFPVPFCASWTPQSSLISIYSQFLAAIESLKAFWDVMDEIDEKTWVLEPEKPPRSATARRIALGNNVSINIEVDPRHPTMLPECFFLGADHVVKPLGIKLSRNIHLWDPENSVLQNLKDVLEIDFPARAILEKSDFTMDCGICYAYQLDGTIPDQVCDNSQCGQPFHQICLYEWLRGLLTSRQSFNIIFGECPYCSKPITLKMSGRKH

Substance | dH [1] | stoichiometry N [1] | Kd [2]
Ube2W (from UniProt Q96B02 1-151) (enzyme) | -8.85 kcal/mol | 0.906 | –
Ube2D2 (from UniProt P62837 1-147) (enzyme) | -7.79 kcal/mol | 0.963 | –
FANCL (from UniProt Q9NW38) | – | – | 500 nM
